# Measured values published in publication PMC4939597, “Mechanism for insulin-like peptide 5 distinguishing the homologous relaxin family peptide receptor 3 and 4” (Scientific Reports, 2016).
# No end group written: not given here.
# How the values were obtained:
# [1] = biological target: T1, human RXFP4 (Homo sapiens, UniProt Q8TDU9); experiment: Receptor binding assay, competition with NanoLuc-conjugated R3/I5 tracer; details: for pIC50 RXFP4: HEK293T cells transiently overexpressing human RXFP4, 0.5 nM NanoLuc-conjugated R3/I5 tracer, 21 °C, 2 h, mean ± SE, n = 3, SEM
# T1 construct: expressed in transfected cells; host or cells: HEK293T
# T1 sequence (Q8TDU9 whole entry): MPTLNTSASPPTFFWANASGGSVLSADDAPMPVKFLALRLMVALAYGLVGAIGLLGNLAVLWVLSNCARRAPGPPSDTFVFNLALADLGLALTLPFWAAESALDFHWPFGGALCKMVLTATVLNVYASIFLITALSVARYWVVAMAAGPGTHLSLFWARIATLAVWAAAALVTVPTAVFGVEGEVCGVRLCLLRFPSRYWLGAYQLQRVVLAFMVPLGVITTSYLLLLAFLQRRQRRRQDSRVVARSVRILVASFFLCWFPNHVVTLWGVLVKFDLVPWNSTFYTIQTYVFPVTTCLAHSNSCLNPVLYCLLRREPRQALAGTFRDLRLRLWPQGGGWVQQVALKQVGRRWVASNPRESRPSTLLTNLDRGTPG
# Description: (§1) Figure 3 Receptor binding activities of the mature INSL5 and R3/I5 mutants towards RXFP3 and RXFP4. A NanoLuc-conjugated R3/I5 peptide was used as tracer and HEK293T cells transiently overexpressing human RXFP3 or human RXFP4 were used as receptor source. The tracer concentration used in these assays was 0.5 nM. The nonspecific binding was obtained by competition with 1.0 μM of relaxin-3. The measured data were expressed as mean ± SE (n = 3) and fitted to sigmoidal curves using the software SigmaPlot 10.0.
# (§2) The receptor binding assays of the mature INSL5 and R3/I5 mutants were carried out using a NanoLuc-conjugated R3/I5 peptide as tracer and the human embryonic kidney (HEK) 293T cells transiently overexpressing human RXFP3 or human RXFP4 as receptor source. Nonspecific binding was obtained by competition with 1.0 μM of human relaxin-3. Briefly, HEK293T cells were transiently transfected with the expression construct of human RXFP3 or human RXFP4. Next day, the transfected cells were trypsinised, seeded into a 96-well plate, and continuously cultured for 24–36 h to confluence. To start binding assay, the medium was removed and the binding solution (serum-free DMEM medium plus 1% bovine serum albumin) containing 0.5 nM of the NanoLuc-conjugated R3/I5 tracer and varied concentrations of competitor was added (100 μl/well). After incubation at 21 °C for 2 h, the binding solution was removed and the cells were washed twice by ice-cold phosphate-buffered saline (200 μl/well for each wash). Thereafter, the cells were lysed by lysis solution (100 μl/well, from Promega, Madison, WI, USA) and the cell lysate was transferred to a white opaque 96-well plate (50 μl/well). After mixing with the freshly diluted substrate (50 μl/well), bioluminescence was immediately measured on a SpectraMax M5 plate reader (Molecular Devices, Sunnyvale, CA, USA) using the luminescence mode. The measured bioluminescence data were expressed as mean ± SE (n = 3) and fitted to sigmoidal curves using the SigmaPlot10.0 software.
# [2] = biological target: T2, human RXFP3 (Homo sapiens, UniProt Q9NSD7); experiment: as above; details: HEK293T cells transiently overexpressing human RXFP3; 0.5 nM NanoLuc-conjugated R3/I5 tracer; 21 °C, 2 h; mean ± SE, n = 3; SEM
# T2 construct: expressed in transfected cells; host or cells: HEK293T
# T2 sequence (Q9NSD7 1-469): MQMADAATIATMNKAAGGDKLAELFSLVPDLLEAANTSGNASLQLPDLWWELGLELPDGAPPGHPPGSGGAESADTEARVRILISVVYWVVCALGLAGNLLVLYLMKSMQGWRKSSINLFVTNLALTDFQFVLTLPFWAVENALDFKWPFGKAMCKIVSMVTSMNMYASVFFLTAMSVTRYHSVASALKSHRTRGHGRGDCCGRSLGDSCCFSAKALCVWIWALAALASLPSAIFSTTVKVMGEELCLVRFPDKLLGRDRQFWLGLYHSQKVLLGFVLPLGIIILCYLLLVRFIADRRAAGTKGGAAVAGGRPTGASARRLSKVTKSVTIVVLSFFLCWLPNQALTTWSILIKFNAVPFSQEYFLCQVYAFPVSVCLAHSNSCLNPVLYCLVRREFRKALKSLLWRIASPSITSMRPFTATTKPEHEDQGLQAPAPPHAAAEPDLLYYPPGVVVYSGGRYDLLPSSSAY
# Description: as §1, §2
# [3] = biological target: T2, human RXFP3; experiment: Receptor activation assay, CRE-controlled NanoLuc reporter; assay type: cell-based
# Description: (§3) Figure 4 Receptor activation activities of the mature INSL5 and R3/I5 mutants towards RXFP3 and RXFP4. HEK293T cells transiently cotransfected by human RXFP3 or human RXFP4 and a CRE-controlled NanoLuc reporter were used for the activation assays. The measured data were expressed as mean ± SE (n = 3) and fitted to sigmoidal or linear curves using the software SigmaPlot 10.0.
# (§4) The receptor activation assays of the mature INSL5 and R3/I5 mutants were carried out using a cAMP-response element (CRE)-controlled NanoLuc reporter according to our previous procedure. Briefly, HEK293T cells were transiently cotransfected with the expression construct of human RXFP3 or human RXFP4 and the CRE-controlled NanoLuc reporter vector pNL1.2/CRE. Next day, the transfected cells were trypsinised, seeded into a 96-well plate, and continuously cultured for 24–36 h to ~90% confluence. To start activation assay, the medium was removed and the activation solution (serum-free DMEM medium plus 1% bovine serum albumin) containing 1.0 μM of forskolin and varied concentrations of peptide was added (100 μl/well). After being continuously cultured at 37 °C for 4 h, the activation solution was removed and the cells were lysed by lysis solution (100 μl/well, from Promega). The cell lysate was then transferred to a white opaque 96-well plate (50 μl/well), mixed with the freshly diluted substrate (50 μl/well), and bioluminescence was immediately measured on a SpectraMax M5 plate reader (Molecular Devices) using the luminescence mode. The measured bioluminescence data were expressed as mean ± SE (n = 3) and fitted to sigmoidal or linear curves using the SigmaPlot10.0 software.
# [4] = biological target: T1, human RXFP4; experiment: as above; assay type: cell-based; details: HEK293T cells cotransfected with human RXFP4 and CRE-controlled NanoLuc reporter; 1.0 μM forskolin; 37 °C, 4 h; mean ± SE, n = 3; SEM
# Description: as §3, §4
Compound,pIC50 RXFP4 [1],pIC50 RXFP3 [2],pEC50 RXFP4 [4],other results
"[R(B12)L,F(B20)Y,G(B23)A,G(B24)S]R3/I5: recombinant mature two-chain R3/I5 mutant (chain 1 RAAPYGVRLCGLEFIRAVIYTCASSRW; chain 2 QDLQTLCCTDGCSMTDLSALC; disulfide (positions not given here); not fully specified; also: A-chain N-terminal pyroglutamate likely)",7.75 ± 0.05,8.40 ± 0.04,,
CC[C@H](C)[C@@H]1NC(=O)[C@H](Cc2ccccc2)NC(=O)[C@H]([C@@H](C)CC)NC(=O)[C@H](C(C)C)NC(=O)[C@H]([C@@H](C)O)NC(=O)[C@H](CCCNC(=N)N)NC(=O)[C@H]([C@@H](C)CC)NC(=O)[C@H](Cc2ccc(O)cc2)NC(=O)[C@H](CCC(=O)O)NC(=O)[C@H](CCCNC(=N)N)NC(=O)CNC(=O)[C@@H](NC(=O)[C@H](CC(C)C)NC(=O)[C@H](CCCNC(=N)N)NC(=O)[C@@H](NC(=O)[C@H](CO)NC(=O)[C@H](Cc2ccc(O)cc2)NC(=O)[C@@H](N)CCCCN)C(C)C)CSSC[C@@H]2NC(=O)[C@@H](NC(=O)[C@H](CC(C)C)NC(=O)[C@@H](NC(=O)[C@H](CCC(N)=O)NC(=O)[C@H](CC(C)C)NC(=O)[C@H](CC(=O)O)NC(=O)[C@@H](N)CCC(N)=O)[C@@H](C)O)CSSC[C@H](NC(=O)CNC(=O)[C@H](CC(=O)O)NC(=O)[C@H]([C@@H](C)O)NC2=O)C(=O)N[C@@H](CO)C(=O)N[C@@H](CCSC)C(=O)N[C@@H]([C@@H](C)O)C(=O)N[C@@H](CC(=O)O)C(=O)N[C@@H](CC(C)C)C(=O)N[C@@H](CO)C(=O)N[C@@H](C)C(=O)N[C@@H](CC(C)C)C(=O)N[C@H](C(=O)O)CSSC[C@@H](C(=O)NCC(=O)NCC(=O)N[C@@H](CO)C(=O)N[C@@H](CCCNC(=N)N)C(=O)N[C@@H](Cc2c[nH]c3ccccc23)C(=O)O)NC1=O,,,,fold higher activation potency towards RXFP3 than its parent mutant ([3]; higher than the 4-mutation INSL5): ~ 5 fold; fold lower activation potency towards RXFP3 than relaxin-3 ([3]; lower than relaxin-3): ~ 20 fold
"[F(B20)Y,G(B23)A,G(B24)S]R3/I5: recombinant mature two-chain R3/I5 mutant (chain 1 RAAPYGVRLCGREFIRAVIYTCASSRW; chain 2 QDLQTLCCTDGCSMTDLSALC; disulfide (positions not given here); not fully specified; also: A-chain N-terminal pyroglutamate likely)",7.91 ± 0.02,8.45 ± 0.04,9.02 ± 0.05,
"[R(B12)L,G(B23)A,G(B24)S]R3/I5: recombinant mature two-chain R3/I5 mutant (chain 1 RAAPYGVRLCGLEFIRAVIFTCASSRW; chain 2 QDLQTLCCTDGCSMTDLSALC; disulfide (positions not given here); not fully specified; also: A-chain N-terminal pyroglutamate likely)",7.83 ± 0.04,8.38 ± 0.03,8.16 ± 0.04,
"[R(B12)L,F(B20)Y,G(B23)A,G(B24)S]R3/I5: recombinant mature two-chain R3/I5 mutant (chain 1 RAAPYGVRLCGLEFIRAVIYTCASSRW; chain 2 QDLQTLCCTDGCSMTDLSALC; not fully specified; two-chain, three disulfides; A-chain N-terminal pyroglutamate likely; possible unprinted extra residues as in m2)",,,8.71 ± 0.06,
"[G(B23)A,G(B24)S]R3/I5: recombinant mature two-chain R3/I5 mutant (chain 1 RAAPYGVRLCGREFIRAVIFTCASSRW; chain 2 QDLQTLCCTDGCSMTDLSALC; not fully specified; two-chain, three disulfides; A-chain N-terminal pyroglutamate likely; possible unprinted extra residues as in m2)",,,8.44 ± 0.04,
"[Y(B5)E,R(B12)L,F(B20)Y,G(B23)A,G(B24)S]R3/I5: recombinant mature two-chain R3/I5 mutant (chain 1 RAAPEGVRLCGLEFIRAVIYTCASSRW; chain 2 QDLQTLCCTDGCSMTDLSALC; disulfide (positions not given here); not fully specified; also: A-chain N-terminal pyroglutamate likely)",7.61 ± 0.05,8.11 ± 0.02,8.24 ± 0.05,
"CC[C@H](C)[C@@H]1NC(=O)[C@H](Cc2ccc(O)cc2)NC(=O)[C@H]([C@@H](C)CC)NC(=O)[C@H](C(C)C)NC(=O)[C@H]([C@@H](C)O)NC(=O)[C@H](CCCNC(=N)N)NC(=O)[C@H]([C@@H](C)CC)NC(=O)[C@H](Cc2ccc(O)cc2)NC(=O)[C@H](CCC(=O)O)NC(=O)[C@H](CCCNC(=N)N)NC(=O)CNC(=O)[C@@H](NC(=O)[C@H](CC(C)C)NC(=O)[C@H](CCCNC(=N)N)NC(=O)[C@@H](NC(=O)[C@H](CO)NC(=O)[C@H](CCC(=O)O)NC(=O)[C@@H](N)CCCCN)C(C)C)CSSC[C@@H]2NC(=O)[C@@H](NC(=O)[C@H](CC(C)C)NC(=O)[C@@H](NC(=O)[C@H](CCC(N)=O)NC(=O)[C@H](CC(C)C)NC(=O)[C@H](CC(=O)O)NC(=O)[C@@H](N)CCC(N)=O)[C@@H](C)O)CSSC[C@H](NC(=O)CNC(=O)[C@H](CC(=O)O)NC(=O)[C@H]([C@@H](C)O)NC2=O)C(=O)N[C@@H](CO)C(=O)N[C@@H](CCSC)C(=O)N[C@@H]([C@@H](C)O)C(=O)N[C@@H](CC(=O)O)C(=O)N[C@@H](CC(C)C)C(=O)N[C@@H](CO)C(=O)N[C@@H](C)C(=O)N[C@@H](CC(C)C)C(=O)N[C@H](C(=O)O)CSSC[C@@H](C(=O)NCC(=O)NCC(=O)N[C@@H](CO)C(=O)N[C@@H](CCCNC(=N)N)C(=O)N[C@@H](Cc2c[nH]c3ccccc23)C(=O)O)NC1=O [[L(B9)R,A(B20)G,S(B21)G]INSL5]",,,,fold lower binding potency towards RXFP4 compared with wild-type INSL5 ([1]; lower than wild-type INSL5): ~ 6 fold
"[G(B23)A,G(B24)S]R3/I5: recombinant mature two-chain R3/I5 mutant (chain 1 RAAPYGVRLCGREFIRAVIFTCASSRW; chain 2 QDLQTLCCTDGCSMTDLSALC; disulfide (positions not given here); not fully specified; also: A-chain N-terminal pyroglutamate likely)",8.06 ± 0.04,8.61 ± 0.03,,
